The text below walks through data of the RNAGym collection of RNA variant scans (doi:10.1073/pnas.2313332121).

First the molecules themselves.
B1: TPR t1 (parent)
chain: GACCAAUCUGCCCUCAGAGCUCGAGAACAUCUUCGGAUGCAGAGGAGGCAGGCUUCGGUGGCGCGAUAGCGCCAACGUCCUCAACCUCCAAUGCAUCCCACCACAUGAUGAUGCCUGAAGAGCCUUGGUUUUUUG

This series covers variants of B1. Kind of series: polymerase ribozyme fitness, log enrichment relative to wild type (log ratio); higher = more active; in vitro selection for triplet polymerase activity. A digest of the protocol: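 One round of in vitro selection, in triplicate, was applied to PCR-built, transcribed mutant libraries of each subunit of a heterodimeric triplet polymerase ribozyme. The steps were annealing with a biotinylated primer, partner subunit and triplets, incubation frozen at −7 °C, gel excision of extended constructs, streptavidin-bead capture and RT-PCR. Fitness is the logarithm, base 2, of genotype enrichment over wild-type enrichment from inverse-variance-weighted replicate averages of Illumina-sequenced inputs and outputs, keeping genotypes with ≥10 input reads and ≥1 read per output.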
As to GACCAAUCUGCCCUCAGAGCUCGAGAACAUCUUCGGUUGCAGAGGUAGCAGGCUUCGGUGGCGCGAUAGCGCCAACGUCCUCAACCUCCAAUGCAUCCCACCACAUGAUGAUGCCUGAAGAGGCUUGGUUUUUUG, the “polymerase ribozyme fitness (log ratio)” value is -1.6.

In the case of GACCAAUCUGCCCUCAGAGCUCGAGAACAUCUUCGGUUGCAGAGGAGGCAGGCUUCAGUGGCGCGAUAGCGCCAACGUCCUCAACCUCCAAUGCAUCCCACCACAUGAGGAUGCCUGAAGAGCCUUGGUUUUUUG, the “polymerase ribozyme fitness (log ratio)” value was -5.89.

Regarding GACCAAUCUGCCCUCAGAGCUCGAGAACAUCUUCGGAGGCAGAGGUGGCAGGCUUCGGUGGCGCGAUAGCGCCAACUUCCUCAACCUCCAAUGCAUCCCACCACAUGAUGAUGCCUGAAGAGCUUUGGUUUUUUG, the “polymerase ribozyme fitness (log ratio)” value is -1.67.

For the variant GACCAAUCUGCCCUCAGAGCUCGAGAACAUCUUCGGAUGCAGAGGAGGCAGGCUUCGGUAGCGCGAUAGCGCCAACGUCCUCAACCUCCAAUGAAUCCCACCACAUGAUGAUGCCUGAAGAGCCUUGGUUUUUUG, the “polymerase ribozyme fitness (log ratio)” value was -2.04.

Regarding GACCAAUCUGUCCUCAGAGCUCGAGAACAUCUUCGGAUGCAGAGGAGGCAGGCUUCGGUGGCGCGAUAGCGCCAACGUCCUCAACCUCCAAUGCAUCCCACCACAUGAUGAUGCCUGGAGAGCCUUGGUUUUAUG, the “polymerase ribozyme fitness (log ratio)” value is -0.694.

Turning to GACCAAUCGGCCCUCAGAGCUCGAGAACAUCUUCGUAUGCAGAGGAGGCAGGCUUCGGUCGCGCGAUAGCGCCAACGACCUCAACCUACAAUGCAUCCCACCACAUGAUGAUGCCUGAAGAGCCUUGGUUUUUUG, the “polymerase ribozyme fitness (log ratio)” value is -1.68.

For the variant GACCAAUCUGCCCUCAGAGCUCGAGAACAUCUUCGGAUGCAGAGGAGGCAGGGUUCGGUGGCGCGAUAGAGCCAACGUCCUCAACCUCCAAUGCAUCCCACCACAUGAUGAUGCCUGAAGAGCCUUGGUUUUUUG, the “polymerase ribozyme fitness (log ratio)” value was -3.68.

On to GACCAAUCUGCCCUCAGAGCUCGAGAACAUCUUCGGAUUCAGAGGAGGCAGGCAUCGGUGGCGCGAUAGCGCCAACGUCCUCAACCUCCAAUGCAUCCCACCACAUGAUGAUGCCUGAAGAGCCUUGGUUUUUUG, for which the “polymerase ribozyme fitness (log ratio)” value was -1.76.

Take GACCAAUCUGCCCUCAGAGCUCGAGAACAUCUUCGGAUGCAGUGGAGGCAGGCUUCGGUGGCGCGAUAGCGCCAACGUCCUCAACCUCCAAUCCAUCCCACCACAUGAUGAUGCCUCAAGAGCCUUGGUUUUUUG: the “polymerase ribozyme fitness (log ratio)” value was -4.65.

As for GACCAAUCUGCCCUCAGAGCUCGAGAACAUCUUCGGAUGCAGAAGAGGCAGGCUUCGGUGGCGCGAUAGCGACAACGCCCUCAACCUCCAAUGCAUCCCACCACAUGAUGAUGCCUGAGGAGCCUUGGUUUUUUG, the “polymerase ribozyme fitness (log ratio)” value is 0.491.

Consider GACCAAUCUGCCCUCAGAGCUCGAGAACAUCUUCGGAUGCAGAGGAGGCAGGCUUCGGUGGCGCGAUAGCGCCGACGUCCUCAACCUCCAAUGCAGCCCACCACAUGAUGAUGCCUGAAGAGCCUUGGUUUUUUG, for which the “polymerase ribozyme fitness (log ratio)” value was -0.295.

On to GACCAAUCUGCCUUCAGAGCUCAAGAACAUCUUCGGAUGCAGAGGAGGCAGGCUUCGGUGGCGCGAUAGCGCCAACGUCCUCAACCUCCAAUGCAUCCCACCACAUGAUGAUGCCUGAAGAGCCUUGGUUUUUUG, for which the “polymerase ribozyme fitness (log ratio)” value is -5.12.

Turning to GACCAAUCUGCCCUCAGAGCUCGAGAACAUCUUCGGAUGCAGAGGAGGCAGGCUUCGGUGGCGCGAUAUCGCCAACGUCCUCAACCUCCAAUGCAUCCCACCACAUGAUGAUGGCUGAAGAGCCUUGGUUUUUUG, the “polymerase ribozyme fitness (log ratio)” value is -0.996.

Regarding GACCAAUCUGCCCUCAGAGCUCGAGAACAUCUUCGGAUGCAGAGGAGGCUGGCUUCGGUGGCGCGAUAGCUCCAACGUCCUCAACCUCCAAUGCAUCCCACCACAUGAUGAUGCCUGAAGAGCCUUAGUUUUUUG, the “polymerase ribozyme fitness (log ratio)” value was -2.67.

With GACCAAUCUGUCCUCAGGCCUCGAGAACAUCUUCGGAUGCAGGGGAGGCAGGCUUCGGUGGCUCGAUAGCGCCAACGUCCUCAACCUCCAAUGCAUCCCACCACAUGAUGAUGCCUGAAGAGCCUUGGUUUUUUG, the “polymerase ribozyme fitness (log ratio)” value is -4.05.

On to GACUAAUCUGCCCUCAGAGCUCGAGAACAUCUUCCGAUGCAGAGGAGGCAGGCUUCGGUGGCGCGAUAGCGUCAACGUCCUCAACCUCCAAUGCAUCCCACCACAUGAUGAUGCCUCAAGAGUCAUGGUUUUUUG, for which the “polymerase ribozyme fitness (log ratio)” value is -6.14.

Consider GACCAAUCUGCCCUCAGAGUUCGAGAACAUCUUCGGAUGCAGAGGAGGCAGGCUUCGGUGGCGCGAUAGCGCCAACAUCCUCAACCUCCAAUGCAUCCCACCACAUGAUGAUGCCUGAAGAGCCUUGGUUUUUUG, for which the “polymerase ribozyme fitness (log ratio)” value is -1.35.

As to GACCAAUCUGCCCUCAGAGCUCGAGAACACCUUCGGCUGCAGAGGAGGCAGGCUUCGGUGGCGCGAUAGCGCCAACGUCCUCAACCUCCAAUGCAUCCCACCACAUGAUGAUGCCUGAAGAGCCUUGGUUUUUUG, the “polymerase ribozyme fitness (log ratio)” value is -3.86.

For the variant GACCAAUCUGCCCUCAGAGCUCGAGAACAUCUUCGGAUGAAGAGGAGGCUGGCUUCGGUGGCGCGAUAGCGCCAACGUCCUCAACCUUCAAUGCACCCCACCACAUGAUGAUGCCUGAAUAGCCUUGGUUUUUUG, the “polymerase ribozyme fitness (log ratio)” value is -4.53.

As to GACCAAUCUUCCCUCAGAGCUCGAGAACGUCUUCGGAUGCAGAGGAGGCAGUCUUCGGUGGCGCGAUAGCGCCAACGUGCUCAACCUCCAAUGCAUCCCACCACAUGAUGAUGCCUGAAGAGCCUUGGUUUUUUG, the “polymerase ribozyme fitness (log ratio)” value is -2.85.

Take GACCAAUCUGCCCUCAGAGCUCGAGAACAUCUUCGGAUGCAGAGGAGGCAUGCUUCGGUGGCGCGAUAGCGCCAACGUACUCAACCCCCAAUGCAUCCCACCACAAGAUGAUGCCUGAAGAGCCUUGGUUUUUUG: the “polymerase ribozyme fitness (log ratio)” value is -2.68.
